Columns and labels:
[1] = target: recombinant mouse IgG1κ isotype control antibody (clone P3.6.2.8.1) (mouse)
[2] = target: recombinant human IgG1λ isotype control antibody (clone AbD00264_hIgG1) (human)

Kd [1]	Kd [2]	Binder
0.0167 nM		anti-mouse κ VHH (TP1170) (VHH) VHH: QVQLVESGGGWVQPGGSLRLSCAASGFTFSDTAMMWVRQAPGKGREWVAAIDTGGGYTYYADSVKGRFTISRDNAKNTLYLQMNSLKPEDTARYYCAKTYSGNYYSNYTVANYGTTGRGTLVTVSS
	1.35 nM	anti-human λ VHH (HuFab lambda 1) (VHH) VHH: QVQLQDSGGGLVQPGGSLRLSCAASGFTLDYYAIGWFRQAPGKEREGVSCISSSDGSSDGYTYYADSVKGRFTISRDNAKNTVYLQMNNLKPEDTAVYYCAARLFGVATTDPSYFDSWGQGTQVTVSS
